Assay [1] has as its target T1, human protein C (human, UniProt P04070 43-461).
T1 construct: also called PC
As to the kind of experiment: summary statement; the direct measurement was 125I-APC on HUVEC, and protein C displaced F1-APC equivalently to APC.

For assay [2], the target named is T2, 125I-labeled activated protein C (human, UniProt P04070 43-197; P04070 212-461, radioiodinated with Na[125I] by Iodogen; positions not stated).
T2 construct: Specific activity 1x10^4 cpm/ng
Kind of assay: 125I-APC binding to HUVEC monolayers at 4 C, Scatchard analysis. The protocol: At the indicated times, cells were washed and bound radioactivity was measured. […] After washing, bound radioactivity was measured. […] Specific binding was determined as described below.
Monolayers of HUVEC in 24-well microplates (Costar) (1×10⁵ cells per well) were washed twice with EDTA/PBS and once with ice-cold HBSS. […] After washing three times with ice-cold HBSS, cells were released with the EDTA buffer, and the bound radioactivity was measured in a gamma counter (Isodata 500). To determine non-specific, calcium-independent adsorption of radioactivity, the cells were washed with EDTA/PBS and residual radioactivity in the cell pellet was measured. Non-specific binding of radioactivity was consistently less than 5% of the specific binding. The data was analyzed using the Enzfitter program (Elsevier Biosoft, Cambridge, U.K.).

T2 sequence (P04070 43-197, chain 1 of 2): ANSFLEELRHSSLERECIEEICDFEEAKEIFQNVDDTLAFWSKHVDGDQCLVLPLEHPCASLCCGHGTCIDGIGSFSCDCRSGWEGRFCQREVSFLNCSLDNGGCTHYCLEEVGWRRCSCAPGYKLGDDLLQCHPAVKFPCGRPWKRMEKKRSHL
T2 sequence (P04070 212-461, chain 2 of 2): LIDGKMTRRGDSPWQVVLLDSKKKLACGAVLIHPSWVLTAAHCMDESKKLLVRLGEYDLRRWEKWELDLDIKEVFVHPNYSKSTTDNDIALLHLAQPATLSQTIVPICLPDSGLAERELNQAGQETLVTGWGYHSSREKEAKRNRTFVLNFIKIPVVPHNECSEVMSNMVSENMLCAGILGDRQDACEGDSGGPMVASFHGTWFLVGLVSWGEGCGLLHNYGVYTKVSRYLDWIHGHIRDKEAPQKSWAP
T1 sequence (P04070 43-461): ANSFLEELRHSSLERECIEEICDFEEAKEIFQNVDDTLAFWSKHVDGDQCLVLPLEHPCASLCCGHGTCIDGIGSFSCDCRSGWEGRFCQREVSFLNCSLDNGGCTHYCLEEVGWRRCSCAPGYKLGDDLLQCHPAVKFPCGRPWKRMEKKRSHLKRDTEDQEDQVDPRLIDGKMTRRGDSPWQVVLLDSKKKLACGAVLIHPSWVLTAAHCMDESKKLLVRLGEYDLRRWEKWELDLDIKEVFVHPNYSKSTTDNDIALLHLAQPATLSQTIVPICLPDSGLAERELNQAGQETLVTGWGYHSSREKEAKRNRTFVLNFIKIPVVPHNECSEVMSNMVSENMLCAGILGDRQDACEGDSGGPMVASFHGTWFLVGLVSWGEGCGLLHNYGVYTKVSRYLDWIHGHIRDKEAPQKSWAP

B1: endothelial cell protein C/activated protein C receptor (EPCR), human (receptor)
chain: FCSQDASDGLQRLHMLQISYFRDPYHVWYQGNASLGGHLTHVLEGPDTNTTIIQLQPLQEPESWARTQSGLQSYLLQFHGLVRLVHQERTLAFPLTIRCFLGCELPPEGSRAHVFFEVAVNGSSFVSFRPERALWQADTQVTSGVVTFTLQQLNAYNRTRYELREFLEDTCVQYVQKHISAENTKGSQTSRSYTSLVLGVLVGGFIIAGVAVGIFLCTGGRRC
notes: also called EPCR-1 (clone)
As for B1, the dissociation constant Kd in assay [1] and in assay [2] was 30 nM in each case.

These data come from patent US7063843 (OKLAHOMA MEDICAL RESEARCH FOUNDATION, dated 2006).
